“And” between values parts separate entries of the source, which are not always exact repeats. Identical values can stand only once.
Legend:
[1] = molecular target: Concanavalin A (Con A) internal_change (UniProt P02866); test: particle flow cytometry; settings: after the 20-nt 5' primer: every T = mannose-clicked C8-alkyne-dU (4), binding buffer, salt, pH and temperature not given in the material (hemagglutination: 30 min preincubation at RT)
[2] = molecular target: Concanavalin A (Con A) internal_change (UniProt P02866); test: BLI; settings: after the 20-nt 5' primer: every T = mannose-clicked C8-alkyne-dU (4), binding buffer, salt, pH and temperature not given in the material (hemagglutination: 30 min preincubation at RT)
[3] = every C = 5-formyl-dC (2), primer unmodified

GATCCCAGTCCGAAGTAATCGTTGCATCTGCACGACTGGTGAGCTTGAGTGGCAGAAGAACTTGTGCAAACGGCTATAGG [ConA-3-1]
Kd [1, 3]: 20 nM
Kd [2, 3]: 5.8 nM

GATCCCAGTCCGAAGTAATCGTTGCATCTGCACGACTGGTGAGCTTGAGTGGCAGAAGAACTTGTGCAAACGGCTATAGG [ConA-3-1m]
Kd ([1]; C natural): 17 nM
Kd ([2]; C natural): 3.2 nM and 5.3 nM
